The target of assay [1] is T1, Tag-xPSM fusion target protein (human, UniProt Q04609 44-750).
T1 construct: extracellular domain; they are put first here only as a guess from the type II topology; Made in Sf-9 cells; also called PSMA fusion protein
Description: phage ELISA; R3-A4 stands only in FIG. 5, where Tag-xPSM was immobilised. The source says: (§1) FIG. 5 depicts the binding of selected phage clones to purified extracellular PSMA. Tag-xPSM was immobilized on microtiter plates and targeted for binding with 10¹⁰ PFU of each individual phage. Bound phages were quantified by ELISA absorbance at 410 nm. R4-C9, R5-XC1, and R3-A4 bound with the following significance compared to insertless phage: p-value=0.005, 0.009, and 0.0001 respectively). Phage clones contained peptide sequences as follows: R5-C6: SEQ ID NO:2; R4-C9: SEQ ID NO:5; R5-XC1: SEQ ID NO:1; R3-A4: SEQ ID NO:95.
(§2) Target proteins were immobilized on 96 well tissue culture plates by incubation for 1-2 hours at room temperature or overnight at four degrees Celsius. Both phage and protein coated plate were blocked for 30 minutes with RPMI 1640+1% Bovine Serum Albumin (BSA) at room temperature. Phage were incubated with target in RPMI 1640+1% BSA for 1 hour at room temperature, wells were washed five times in PBS+0.05% Tween-20, and wells were incubated with 1:5000 HRP/anti-M13 monoclonal antibody (in PBS) for 1 hour. Wells were again washed five times in PBS+0.05% Tween-20, and signal detected by incubation in 1×ABTS Stock Solution (100 mg ABTS in 450 ml of 0.05 M Citric Acid, pH 4.0) and absorbance reading at 410 nm. […] Significance was calculated by two-tailed, two-sample equal variance test.

For a further assay, the target named is T2, PSMA on LNCaP cells (human, UniProt Q04609 1-750).
T2 construct: whole, on cells; Target is whole LNCaP cells; also called PSMA expressing LNCaP cells
T2 sequence (Q04609 whole entry): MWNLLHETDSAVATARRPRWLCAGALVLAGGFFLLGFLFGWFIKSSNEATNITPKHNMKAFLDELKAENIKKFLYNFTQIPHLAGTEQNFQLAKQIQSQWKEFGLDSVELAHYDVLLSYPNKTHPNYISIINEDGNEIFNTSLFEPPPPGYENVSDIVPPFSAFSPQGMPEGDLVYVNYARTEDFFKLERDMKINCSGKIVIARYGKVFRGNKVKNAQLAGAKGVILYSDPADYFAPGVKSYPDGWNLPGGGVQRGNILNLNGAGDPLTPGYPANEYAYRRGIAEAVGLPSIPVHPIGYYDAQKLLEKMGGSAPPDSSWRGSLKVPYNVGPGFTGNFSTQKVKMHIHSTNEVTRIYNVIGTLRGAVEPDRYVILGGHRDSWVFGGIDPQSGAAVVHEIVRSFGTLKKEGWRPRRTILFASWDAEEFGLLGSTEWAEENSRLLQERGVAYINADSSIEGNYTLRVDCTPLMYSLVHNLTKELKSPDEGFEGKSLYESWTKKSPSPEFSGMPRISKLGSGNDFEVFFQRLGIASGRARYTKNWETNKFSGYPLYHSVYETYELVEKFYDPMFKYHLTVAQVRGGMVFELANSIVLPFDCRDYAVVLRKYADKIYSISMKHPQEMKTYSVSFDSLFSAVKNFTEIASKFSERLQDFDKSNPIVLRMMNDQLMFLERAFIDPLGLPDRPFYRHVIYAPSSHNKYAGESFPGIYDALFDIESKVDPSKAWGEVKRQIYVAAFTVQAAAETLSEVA
Description: phage binding to LNCaP cells, 10^8 PFU, BRASIL partitioning and titer. The protocol: FIG. 6 depicts the binding of individual phage clones to PSMA expressing LNCaP cells. 1.3×10⁵ harvested LNCaP cells were incubated with 10⁸ PFU of each individual phage for 20 minutes. Cell-bound phage were isolated by BRASIL partitioning and titered. Phage clones contained peptide sequences as follows: R5-C6: SEQ ID NO:2; R4-C9: SEQ ID NO:5; R5-XC1: SEQ ID NO:1; R3-A4: SEQ ID NO:95.
(§3) Cell monolayers were washed several times in PBS, and finally incubated five minutes in PBS at 37° C. Cells were knocked free, pelleted, and suspended in RPMI 1640+1% FBS at a concentration of 10⁶ cells per milliliter. 10⁸ PFU from each clone were incubated with 100 μl of cells at 37° C. for 20 minutes while rotating. For competitive inhibition, purified xPSM or BSA were added to the cells along with phage, and a larger concentration of 10¹⁰ PFU was applied. The cells were then centrifuged through 200 μl of 9:1 dibutyl phthalate:cyclohexane, previously described as BRASIL portioning (Giordano, R. J. et al. (2001) Nat. Med. 7:1249-1253, incorporated herein by reference). The tube was then snap frozen in liquid nitrogen to isolate the cell pellet. The cell pellets were then resuspended in 200 μl of log phage ER2738 cells and phage allowed to infect 1 hour at room temperature. A small aliquot was taken to determine the number of phage bound by dilution titer.

For assay [2], the target named is T3, xPSM (extracellular portion of human PSMA, Tag-xPSM digested with enterokinase, no affinity tags) (human, UniProt Q04609 44-750).
T3 construct: extracellular domain; also called purified xPSM; soluble xPSM protein
T3 sequence (Q04609 44-750): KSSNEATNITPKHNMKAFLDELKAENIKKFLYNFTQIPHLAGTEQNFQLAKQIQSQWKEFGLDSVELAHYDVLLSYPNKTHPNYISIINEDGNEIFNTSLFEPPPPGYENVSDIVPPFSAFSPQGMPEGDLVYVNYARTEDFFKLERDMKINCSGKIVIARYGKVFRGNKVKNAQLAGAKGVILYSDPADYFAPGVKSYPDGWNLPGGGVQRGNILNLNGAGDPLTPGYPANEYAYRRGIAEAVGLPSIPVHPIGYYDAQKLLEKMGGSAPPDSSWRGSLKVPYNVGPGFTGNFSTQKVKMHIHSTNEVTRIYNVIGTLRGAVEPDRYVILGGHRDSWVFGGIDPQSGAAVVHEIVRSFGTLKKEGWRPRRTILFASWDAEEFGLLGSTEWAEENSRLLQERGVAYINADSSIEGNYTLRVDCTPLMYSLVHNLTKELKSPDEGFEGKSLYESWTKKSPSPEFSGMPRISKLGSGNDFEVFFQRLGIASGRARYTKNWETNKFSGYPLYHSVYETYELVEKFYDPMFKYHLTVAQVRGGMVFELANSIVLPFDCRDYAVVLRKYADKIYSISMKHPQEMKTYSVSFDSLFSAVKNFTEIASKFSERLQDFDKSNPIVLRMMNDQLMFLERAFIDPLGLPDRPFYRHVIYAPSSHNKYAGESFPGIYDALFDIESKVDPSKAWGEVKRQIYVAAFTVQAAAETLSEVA
Description: phage ELISA on xPSM.

In assay [3] the target is T1, Tag-xPSM fusion target protein. As to the kind of experiment: phage ELISA, Tag-xPSM immobilised on microtiter plates, 10^10 PFU, absorbance at 410 nm.
Text: as §1, §2

For assay [4], the target named is T3, xPSM (extracellular portion of human …). Description: competition: 380 nM soluble PSMA (xPSM) against LNCaP cells for R5-XC1 phage, 500 nM BSA as control. The protocol: FIG. 7 depicts the specific blocking of LNCaP phage binding by soluble xPSM protein. 10¹⁰ R5-XC1 phage or the round one phage pool were allowed to bind LNCaP cells in the presence of 380 nM PSMA or 500 nM BSA.
as §3

Ends that are not written are not given here.

T1 sequence (Q04609 44-750): as above

B1: R3-A4 phage (M13 phage displaying CFPQSSARC) (peptide)
chain: CFPQSSARC
modifications: not fully specified (bridges); cysteine pairing not given here; also: displayed on M13 phage pIII coat protein
notes: Disulfide-constrained heptapeptide flanked by cysteines, tested as whole phage; not shown: pIII coat protein of M13 filamentous bacteriophage (New England Biolabs CX7C library); junction between peptide and pIII
Take B1: the binding result (in assay [1]; with PSMA on LNCaP cells) was “binds” throughout.

B2: SEQ ID NO 28 phage (M13 phage displaying CLSSNSSLC) (peptide)
chain: CLSSNSSLC
modifications: not fully specified (bridges); cysteine pairing not given here; also: displayed on M13 phage pIII coat protein
notes: Tested as whole phage; also called R3-C1; not shown: pIII coat protein of M13 filamentous bacteriophage (New England Biolabs CX7C library); junction between peptide and pIII
On to B2, for which, in assay [2], the binding result is recorded as “binds”.

B3: R5-C6 phage (M13 phage displaying CTITSKRTC) (peptide)
chain: CTITSKRTC
modifications: not fully specified (bridges); cysteine pairing not given here; also: displayed on M13 phage pIII coat protein
notes: as for B1
On to B3, for which the binding result (with PSMA on LNCaP cells; in assay [2]) was “binds” throughout.

B4: R5-XC1 phage (M13 phage displaying CQKHHNYLC) (peptide)
chain: CQKHHNYLC
modifications: not fully specified (bridges); cysteine pairing not given here; also: displayed on M13 phage pIII coat protein
notes: as for B1
Consider B4, for which the binding result (in assay [3]; in the assay with PSMA on LNCaP cells; in assay [4]) was “binds” each time.

B5: SEQ ID NO 9 phage (M13 phage displaying CPSVNTKQC) (peptide)
chain: CPSVNTKQC
modifications: not fully specified (bridges); cysteine pairing not given here; also: displayed on M13 phage pIII coat protein
notes: Tested as whole phage; also called R5-C11; not shown: pIII coat protein of M13 filamentous bacteriophage (New England Biolabs CX7C library); junction between peptide and pIII
For B5, the binding result in assay [2] is “binds”.

B6: SEQ ID NO 106 phage (M13 phage displaying CQVRHSAQC) (peptide)
chain: CQVRHSAQC
modifications: not fully specified (bridges); cysteine pairing not given here; also: displayed on M13 phage pIII coat protein
notes: Tested as whole phage; not shown: pIII coat protein of M13 filamentous bacteriophage (New England Biolabs CX7C library); junction between peptide and pIII
For B6, the binding result in assay [2] is on record as “binds”.

B7: SEQ ID NO 107 phage (M13 phage displaying CTPQSSDRC) (peptide)
chain: CTPQSSDRC
modifications: not fully specified (bridges); cysteine pairing not given here; also: displayed on M13 phage pIII coat protein
notes: as for B6
As for B7, the binding result in assay [2] is “binds”.

(Values after patent US20070254316A1 (Johns Hopkins, published 2007).)
